# From patent publication US20210087250A1, “PHARMACEUTICAL COMPOSITIONS FOR THE TRANSMUCOSAL DELIVERY OF THERAPEUTIC PEPTIDES AND PROTEINS” (CYPRUMED GMBH, priority 2018, published 2021)
# Like-named read-outs stand apart in the source and are kept apart here.
# What was measured:
# [1] = tested on: human nasal cell line RPMI 2650; experiment: Permeation of semaglutide through human nasal cells; assay type: in vitro ADME; details: 0.5 mg/ml semaglutide in KRB with 5% arginine HCl versus KRB only
# Method: All permeation studies were performed with RPMI 2650 models after 3 weeks of cultivation. Furthermore, the whole equipment was pre-warmed to 37° C. All steps were performed at 37° C. Prior to permeation, TEER values were measured using EVOM® combined with Endohm® Chamber from World Precision Instruments (WPI, Sarasota, Fla., US).
# RPMI models were incubated for 60 min in KRB. Meanwhile sample solution containing excipients and active pharmaceutical ingredients were prepared. Subsequent to the incubation period, TEER values were determined again.
# Before permeation, the KRB was removed from both sides of the RPMI models and 1200 μL KRB as acceptor volume were added. Then, 200 μL of the formulations (containing 0.5 mg/ml of Semaglutide each; reference formulation in KRB only, sample formulation in KRB containing 5% of arginine HCl) were applied to the apical surface of each RPMI model. With this step the permeation time was started. After two hours of exposition the acceptor was entirely removed, transferred to Eppendorf tubes and replaced by 1200 μL pre-warmed KRB. Four hours after starting the experiment the total amount of the acceptor was withdrawn again. During permeation the cell culture plates were shaken horizontally with 200 U/min at 37° C.
# RPMI 2650 cells = experiment: CellTiter 96 AQueous One Solution cell proliferation cytotoxicity assay (MTS); assay type: cell-based, human; details: 2.5% and 5.0% (m/V) in KRB, up to 120 min
# Method: CellTiter 96® AQueous One Solution Cell proliferation Assay from Promega (Mannheim, Germany) is a colorimetric method for determining the number of viable cells in a cytotoxicity assay. The MTS tetrazolium compound is bioreduced by viable cells in a colored formazan product. The quantity of formazan is directly proportional to the number of living cells and can be measured by absorbance at 490 nm. This assay was performed to determinate cytotoxic effects of Arginine HCl in the concentrations of 2.5% and 5.0% (m/V) on RPMI 2650 cells.
# RPMI 2650 cells were seeded onto a 96-well tissue culture test plate at a density of 60,000 cells per well for 24 h. Arginine HCl was dissolved in KRB. Medium was removed from the cells and replaced by 100 μL excipient solutions per well. Cells were incubated with excipient solutions for 0 min, 15 min, 30 min, 60 min and 120 min. Furthermore, cells were incubated with KRB, 1.0% Triton-X solution (V/V) for the same incubation periods as negative and positive controls, respectively. Bacitracin (BAC) served as reference.
# The CellTiter 96® AQueous One Solution Cell proliferation Assay was carried out following the manufacturer's protocol. […]
# After the incubation period the samples were analyzed immediately. Absorbance was recorded at 490 nm and measured by using a microplate reader Infinite® M Plex (Tecan, Switzerland).
# MDCK cells = experiment: Transepithelial electrical resistance (TEER) measurement; assay type: cell-based; details: 2.5% and 5%
# Method: The cellZscope from nanoAnalytics (Munster, Germany) was used for continuous evaluation of TEER as a surrogate parameter of tight junction functionality. MDCK cells were grown on 1.12 cm^2, 1.0 μm transparent filter inserts (ThinCerts™, Greiner Bio-One, Frickenhausen, Germany) with a seeding density of 100,000 cells per well. The medium was changed at cultivation days 3, 4 and 5. TEER measurements were performed on day 5 when cells reached a resistance of approximately 3,500 Ω·cm^2 starting with the replacement of the growth medium by an equivalent volume of KRB, pH 7.4 (500 μL apical, 1,500 μL basolateral) and cell incubation for 60 min. After this preincubation, 250 μL of KRB was removed from the insert, and the same volume of double-concentrated sample solution (Arginine HCl in KRB) was added to the 250 μL KRB inside the insert to reach the desired concentration. Afterwards, impedance measurements were performed for 180 min with a frequency range of 1 Hz to 100 kHz at 37° C. and 5% CO2 inside the incubator.
# Subsequently, the cells were carefully washed with fresh KRB and incubated in medium, and TEER was monitored up to 24 h in 30 min time intervals after the start of the experiment to evaluate TEER recovery. The results (shown in FIG. 7) are given as the relative TEER reduction, defined as the percentage change of the starting value corrected by the baseline value.
# desmopressin [2] = target: desmopressin
# [3] = target: T1, PTH(1-34) (Homo sapiens (Human)) (UniProt P01270)
# T1 sequence (peptide): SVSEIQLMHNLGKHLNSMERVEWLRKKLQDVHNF
# desmopressin [4] = target: desmopressin; remark: listed apart in the source
# [5] = target: T1, PTH(1-34) (Homo sapiens (Human)); remark: listed apart in the source
# [6] = target: T1, PTH(1-34) (Homo sapiens (Human)); remark: listed apart in the source
compound,measurement,setting,value
"Cl.N=C(N)NCCC[C@H](N)C(=O)O [arginine HCl, arginine hydrochloride]",permeation of semaglutide across human nasal cells,[1],improves the permeation of semaglutide
same,cell viability,RPMI 2650 cells,Only a minor decrease in cell viability
same,TEER,MDCK cells; 180 min,strong decrease in TEER
same,reversibility of tight junction opening (TEER recovery),MDCK cells; up to 24 h,fully reversible
chymotrypsin (enzyme),Intact desmopressin after 5 hours incubation (%),desmopressin [2],7%
pancreatin (pool or library),% intact PTH(1-34),[3],0%
same,Peptide recovery,desmopressin [4],20%
pepsin (enzyme),Intact PTH(1-34),[5],0%
trypsin (enzyme),Intact PTH(1-34),[6],0%
same,% intact Adalimumab,adalimumab,82%
